Data from US20260226152A1 (GlaxoSmithKline, published 2026).

T1: Human IL-18 (human, UniProt Q14116 37-193)
T1 sequence: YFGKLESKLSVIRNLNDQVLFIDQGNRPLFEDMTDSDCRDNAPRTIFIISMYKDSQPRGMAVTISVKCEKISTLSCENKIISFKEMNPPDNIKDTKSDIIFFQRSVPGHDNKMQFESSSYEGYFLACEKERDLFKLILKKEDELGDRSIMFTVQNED

T2: Human IL-23 (human, UniProt Q9NPF7 20-189; P29460 23-328)
T2 sequence 1: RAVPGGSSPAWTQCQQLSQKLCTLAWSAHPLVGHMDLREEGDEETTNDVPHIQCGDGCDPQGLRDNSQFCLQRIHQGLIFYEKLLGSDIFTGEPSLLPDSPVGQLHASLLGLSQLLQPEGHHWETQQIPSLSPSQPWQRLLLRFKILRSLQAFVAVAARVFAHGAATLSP
T2 sequence 2: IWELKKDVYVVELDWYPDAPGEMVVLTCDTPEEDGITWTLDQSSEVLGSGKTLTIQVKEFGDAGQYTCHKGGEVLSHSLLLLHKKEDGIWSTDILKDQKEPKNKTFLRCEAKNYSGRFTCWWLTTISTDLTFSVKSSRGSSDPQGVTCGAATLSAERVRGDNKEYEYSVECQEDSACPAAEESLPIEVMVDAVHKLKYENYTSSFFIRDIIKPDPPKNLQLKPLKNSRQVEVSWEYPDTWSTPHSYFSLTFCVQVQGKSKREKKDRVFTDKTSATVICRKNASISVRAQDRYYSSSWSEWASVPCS

B1: IL-23 control 2 (antibody, V domains shown)
VH: QVQLVQSGAEVKKPGSSVKVSCKASGYTFTDQTIHWMRQAPGQGLEWIGYIYPRDDSPKYNENFKGKVTITADKSTSTAYMELSSLRSEDTAVYYCAIPDRSGYAWFIYWGQGTLVTVSS
VL: DIQMTQSPSSLSASVGDRVTITCKASRDVAIAVAWYQQKPGKVPKLLIYWASTRHTGVPSRFSGSGSRTDFTLTISSLQPEDVADYFCHQYSSYPFTFGSGTKLEIK
notes: Anti-IL-23 (risankizumab) mAb plus Het-mAb Fc mutations of Heterodimeric bsAbs 1-4 and silencing (LAGA) mutations; also called risankizumab variable domains
B2: IL-23 control 3 (antibody, V domains shown)
VH: QVQLVQSGAEVKKPGASVKVSCKASGYIFITYWMTWVRQAPGQGLEWMGQIFPASGSADYNEKFEGRVTMTTDTSTSTAYMELRSLRSDDTAVYYCARGGGGFAYWGQGTLVTVSS
VL: DIQMTQSPSSLSASVGDRVTITCRTSENIYSYLAWYQQKPGKAPKLLIYNAKTLAEGVPSRFSGSGSGTDFTLTISSLQPEDFATYYCQHHYGIPFTFGQGTKVEIK
notes: Anti-IL-23 (tildrakizumab) plus Het-mAb Fc mutations of Heterodimeric bsAbs 1-4 and half-life extending (YTE) mutations; also called tildrakizumab variable domains

How the values were obtained:
Human IL-18 [1] = target: T1, Human IL-18; experiment: cell-based or functional assay
Human IL-23 [2] = target: T2, Human IL-23; experiment: cell-based or functional assay
Human IL-23 [3] = target: T2, Human IL-23; experiment: cell-based or functional assay; remark: listed apart in the source
Human IL-23 [4] = target: T2, Human IL-23; experiment: SPR (Biacore), antibody captured on Protein A/G, cytokine as analyte, 25 C, 1:1 fit, n=1
Protocol: (§1) A heterodimeric bsAb, alongside anti-IL-18 and anti-IL-23 common light chain control bispecific antibodies, were assessed for binding to human and cyno IL-18 and IL-23, using the Biacore 8K and T200 (Cytiva) surface plasmon resonance (SPR) instruments. All reagents were generated recombinantly in-house with the exception of Rhesus monkey IL-18 which was purchased from R&D systems (Cat #2548-RM-025/CF). Rhesus and cynomolgus monkey amino acid sequences are identical. Therefore, the protein will be referred to as cynomolgus monkey IL-18.
(§2) Heterodimeric bsAb, anti-IL-18 and anti-IL-23 common light chain bispecific control molecules were assessed for binding to recombinant human and cynomolgus monkey IL-18 and IL-23 using the Biacore 8K and T200 (Cytiva) SPR instruments. The antibodies were captured onto Protein A/G, which was immobilised onto flow cell 2 of 8 channels (Biacore 8K) or flow cells 2, 3 and 4 (Biacore T200) of a CM5 series S sensor chip by primary amine coupling. The IL-18 or IL-23 analytes were passed over the captured antibodies at varying concentrations between 0.04-25 nM. The association phase was for 240 seconds at 30 μl/min, followed by a dissociation step of up to 1200 seconds. A 0 nM (i.e., buffer alone) injection was used to double reference the binding curves. Regeneration of the chip surface between cycles was carried out using 50 mM NaOH. The assay was run at 25° C. in HBS-EP⁺ buffer. Biacore 8K control software version 3.0 was used to run the experiment. Data was analysed using Biacore 8K Insight evaluation software version 3.0. Biacore T200 control software version 1.0 was used to run the experiment. Data was analysed using Biacore T200 evaluation software version 2.0. Affinities and kinetics were determined using the 1:1 kinetic fit inherent to the software where possible. All affinity values generated using both instruments were combined to determine geometric mean values.

Human IL-18 [5] = target: T1, Human IL-18; experiment: SPR (Biacore), antibody captured on Protein A/G, cytokine as analyte, 25 C
Protocol: as §1, §2

Row | Binder | pIC50 (GeoMean), neutralisation of human IL-18-induced IFNγ secretion by KG-1 cells (Human IL-18 [1]) | IC50 Parent (pM), inhibition of human IL-23-induced mouse IL-17A secretion in mouse splenocytes (run with Heterodimeric bsAb-1) (Human IL-23 [2]) [pM] | IC50 Parent (pM), inhibition of human IL-23-induced mouse IL-17A secretion in mouse splenocytes (run with Heterodimeric bsAb-2) (Human IL-23 [2]) [pM] | IC50 Parent (pM), inhibition of IL-23-induced pSTAT3 in T cells of human whole blood (run with Heterodimeric bsAb-1) (Human IL-23 [3]) [pM] | IC50 Parent (pM), inhibition of IL-23-induced pSTAT3 in T cells of human whole blood (run with Heterodimeric bsAb-2) (Human IL-23 [3]) [pM] | Kd (Human IL-23 [4]) [nM] | binding result (Human IL-18 [5]) | IC50 Parent (pM), inhibition of human IL-23-induced mouse IL-17A secretion in mouse splenocytes (run with Heterodimeric bsAb-3) (Human IL-23 [2]) [pM] | IC50 Parent (pM), inhibition of IL-23-induced pSTAT3 in T cells of human whole blood (run with Heterodimeric bsAb-3) (Human IL-23 [3]) [pM]
1 | B1 | < 8.48 | 60 | 53.3 | 282 | 286 | 0.163 | no binding (tested: 0.04-25 nM analyte) | – | –
2 | B2 | – | – | – | – | – | 0.576 | no binding (tested: 0.04-25 nM analyte) | 687 | 637
